Assay results published in publication doi:10.1101/2020.01.16.909523 (bioRxiv, 2020).

Target: PE5mt-PPE4mt heterodimer (His6 tag cleaved) (Mycobacterium tuberculosis, UniProt L7N695 1-102; P9WI43 1-180)
Assay: SEC-MALS

PE5mt-PPE4mt heterodimer (His6 tag cleaved), sequence (L7N695 whole entry, chain 1 of 2): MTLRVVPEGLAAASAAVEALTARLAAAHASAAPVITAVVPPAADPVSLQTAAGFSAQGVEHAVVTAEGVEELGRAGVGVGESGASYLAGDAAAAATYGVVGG
PE5mt-PPE4mt heterodimer (His6 tag cleaved), sequence (P9WI43 1-180, chain 2 of 2): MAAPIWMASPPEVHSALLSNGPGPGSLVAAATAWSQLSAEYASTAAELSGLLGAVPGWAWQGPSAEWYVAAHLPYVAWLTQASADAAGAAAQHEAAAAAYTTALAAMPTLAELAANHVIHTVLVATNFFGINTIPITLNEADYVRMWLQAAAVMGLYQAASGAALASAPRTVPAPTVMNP

B1: EspG3mm (natural protein)
chain: MESMPNAVELTVENAWFIAEMVGAGTFPWVLAITTPYSDEAQRSAFFARQRDELTQLGLLSSDGVVNPAVAEWIKVVCFPERWLDLRYVGPGTGNGGEDLLRGIVAQSAGIMGKAGKAHPSFNTVVALRNAQLVTFTAMDIDDPRALVPVLGVGLSARPPARFEEFSMPMRVGARADERLRSGESLDEVLDYLGIPVSARPVVQAVFSGPRSYVEIVAGCNRDGEHTTTDVGLSIVDTTAGRVLVSPSRAFDGEWVSTFSAGTPFATAVAIDQLIANLPDGQWFPGQRLSRDFSSQPS
**Q.** For B1, which “stoichiometry N” value is on record?
**A.** The value was 1.
